The test concerns the target T1, BRD7-His (bromodomain-containing protein 7 with His tag) (human, UniProt Q9NPI1 1-651).
T1 construct: Bromodomain-containing protein 7, human; source: HEK293T, transfected, in lysate; for the pull-down purified from HEK293T cell lysates
T1 sequence (looked up): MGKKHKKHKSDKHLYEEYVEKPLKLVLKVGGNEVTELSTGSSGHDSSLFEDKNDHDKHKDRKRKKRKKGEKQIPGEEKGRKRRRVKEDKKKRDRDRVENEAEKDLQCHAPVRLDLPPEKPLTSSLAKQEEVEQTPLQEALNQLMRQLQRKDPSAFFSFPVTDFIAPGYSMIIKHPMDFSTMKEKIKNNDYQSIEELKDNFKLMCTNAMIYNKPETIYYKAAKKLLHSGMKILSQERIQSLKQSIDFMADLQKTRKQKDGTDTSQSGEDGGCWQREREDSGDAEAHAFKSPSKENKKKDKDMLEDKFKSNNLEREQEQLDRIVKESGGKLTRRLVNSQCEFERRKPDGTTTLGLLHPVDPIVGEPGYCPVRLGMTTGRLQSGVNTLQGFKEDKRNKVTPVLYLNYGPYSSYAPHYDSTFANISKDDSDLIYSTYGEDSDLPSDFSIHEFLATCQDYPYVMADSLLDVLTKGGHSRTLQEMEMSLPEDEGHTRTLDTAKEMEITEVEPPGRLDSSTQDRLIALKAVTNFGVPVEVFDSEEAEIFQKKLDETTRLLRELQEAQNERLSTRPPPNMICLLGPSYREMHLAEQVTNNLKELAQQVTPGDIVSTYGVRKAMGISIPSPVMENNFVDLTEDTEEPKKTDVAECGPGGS
The test is described as follows: co-IP; HEK293T cells co-transfected with FLAG-PPARα and BRD7-His or BRD9-His; lysate (0.3 M NaCl, 0.5% NP-40, pH 8.0) on anti-His tag antibody-Dynabeads Protein G, 2 h at room temperature; Western blot; in Fig. 5C the cells were treated with 30 μM WY-14643 and/or 40 μM BI-9564 for 48 h (interaction markedly attenuated). As to conditions: partners not purified. A general note: Immunoblotting shows a protein as a band on a membrane.

B1: FLAG-PPARα (peroxisome proliferator-activated receptor α with 3×FLAG) (natural protein, human, UniProt Q07869 1-468, looked up)
chain: MVDTESPLCPLSPLEAGDLESPLSEEFLQEMGNIQEISQSIGEDSSGSFGFTEYQYLGSCPGSDGSVITDTLSPASSPSSVTYPVVPGSVDESPSGALNIECRICGDKASGYHYGVHACEGCKGFFRRTIRLKLVYDKCDRSCKIQKKNRNKCQYCRFHKCLSVGMSHNAIRFGRMPRSEKAKLKAEILTCEHDIEDSETADLKSLAKRIYEAYLKNFNMNKVKARVILSGKASNNPPFVIHDMETLCMAEKTLVAKLVANGIQNKEAEVRIFHCCQCTSVETVTELTEFAKAIPGFANLDLNDQVTLLKYGVYEAIFAMLSSVMNKDGMLVAYGNGFITREFLKSLRKPFCDIMEPKFDFAMKFNALELDDSDISLFVAAIICCGDRPGLLNVGHIEKMQEGIVHVLRLHLQSNHPDDIFLFPKLLQKMADLRQLVTEHAQLVQIIKKTESDAALHPLLQEIYRDMY
modifications: acetylated lysine residue(s), positions not given
notes: the sites are not mapped; source: HEK293T, transfected (pcDNA3.1), in lysate; for the pull-down captured from lysate on anti-FLAG antibody-Dynabeads Protein G and washed; not shown: 3×FLAG, N-terminal, kept
For the molecule B1, the binding result is on record as “binds”.

The values above are taken from paper PMC12444171, “Chromatin remodeler BRD9 represses transcription of PPARα target genes, including CPT1A to suppress lipid metabolism” (Journal of Lipid Research, 2025).
